Like-named read-outs stand apart in the source and are kept apart here.
Tests used:
IL-18 [1] = molecular target: T1, IL-18 (Homo sapiens, UniProt Q14116); experiment: KD calculation by titration with free IL-18 ELISA (IL-18BP capture); type: binding; conditions: read-out: KD between human IL-18 and IL-18BP by titration
T1 sequence (Q14116 37-193): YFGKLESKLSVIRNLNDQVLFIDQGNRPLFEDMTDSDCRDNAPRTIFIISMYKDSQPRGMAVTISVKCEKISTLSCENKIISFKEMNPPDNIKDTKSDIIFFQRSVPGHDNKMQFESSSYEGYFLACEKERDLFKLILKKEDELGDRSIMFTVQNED
Experimental: Microplate wells are coated with an appropriate volume phosphate buffer saline solution containing recombinant human IL-18BP. Plates are incubated for a period of time at 4° C. and then stabilized with a blocking buffer containing bovine serum albumin or other appropriate blocking agents. Once the reaction is finished, microplates are sealed and stored at 4° C. until used for detection of free IL-18. Microplates can also be dried in a stabilizing solution allowing storage at room temperature and then be reconstituted by hydration when needed for assay.
As an example, for a final reaction volume of 100 μl, dispense first 80 μl of biotin/antibody conjugate. Samples or biological fluids containing free IL-18 are tested with the IL-18BP coated microplates. After that, 20 μl sample volume containing biological fluid or standard is dispensed per microplate well. Non-diluted or diluted biological fluid can be but is not restricted to serum, urine, tear, saliva, bile, sweat, exhalation or expiration, sputum, bronchoalveolar fluid, sebum, cellular, gland, mucosa or tissue secretion, biopsy, homogenized tissue. […] The resulting reactions are then monitored with a microplate reader at an appropriate nanometer wavelength for absorbance or fluorescence of the produced reagent. […]
KD was calculated based on the following formula: KD=[free IL-18]×[free IL-18BP]/[IL-18/IL-18BP complex] […]

IL-18 [2] = molecular target: T1, IL-18; experiment: New BIAcore setup: IL-18BP bound to chip, affinity to IL-18; type: binding; conditions: IL-18BP on BIAcore chip
Excerpt: Following the above KD results obtain by titration, we tested the binding affinity of IL-18BP to IL-18 with a simpler BIAcore setup consisting of binding IL-18BP to the BIAcore chip and then testing its affinity to IL-18. The method setup is the contrary of Kim et al 2000^8, who bound IL-18 to the BIAcore chip with a monoclonal antibody and then tested the affinity of the complex antibody-IL-18 to IL-18BP.

IL-18 [3] = molecular target: T1, IL-18; experiment: Titration of free IL-18 as a function of IL-18BP level (free IL-18 ELISA); type: binding; conditions: 400 pg/mL IL-18 in PBS with 5% BSA
Experimental: A constant quantity of recombinant IL-18 was titrated as a function of different and well defined quantities of IL-18BP in order to understand when free IL-18 is not any more detectable. A PBS solution of 400 pg/mL IL-18 supplemented by 5% BSA was spiked with defined quantities of IL-18BP ranging from 0 to 10′000 pg/mL. The molar ratios were calculated according to the respective molecular weight of IL-18 and IL-18BP. The free IL-18 detection was performed with ELISA using IL-18BP for IL-18 as described above. […] In contrast, when molar ratio is lower than 15, free IL-18 is easily detectable.

[4] = test system: total cell infiltration in the lung airway space; experiment: Exacerbation/tobacco smoke mouse model: total cell infiltration in lung airway space (BALF); type: in vivo, C57BL/6J mice
Experimental: (§1) The aim of the study was to determine the effect of IL-18BP, administered at three dose levels, by the sub-cutaneous route, on Polyinosinic:polycytidylic acid-induced exacerbation of tobacco-smoke induced pulmonary inflammation, in C57BL/6J mice. High level of dexamethasone, dosed orally, was included in the study as a reference agent.
(§2) Mice received either vehicle (PBS) or IL-18BP. IL-18BP was given subcutaneously to 3 groups of animals respectively at 1, 3 or 10 mg/kg 2 h prior to the initial tobacco smoke exposure from Day 1 to Day 4. Mice received orally either vehicle or dexamethasone (10 mg/kg) 1 h prior to each twice daily exposure. Mice received by intranasal administration either the vehicle or Polyinosinic:polycytidylic acid (2 mg/kg) 2 h prior to the initial air or tobacco smoke exposure on Day 4 to induce lung inflammation exacerbation. Tobacco smoke exposure was performed during the morning and afternoon as follow: Day 1 for 15 min, Day 2 for 25 min, Day 3 for 30 min and Day 4 for 30 min.
(§3) Following the above treatments, animals were terminally anaesthetised on Day 5. After that, a blood sample was taken via the sub-clavian artery (plasma) and the animals were bronchoalveloar lavaged with 3×0.4 ml of PBS for further cellular and cytokine/mediator analysis. […] Cells recovered from the BALF were counted using the Sysmex cell counter.

[5] = test system: neutrophil infiltration in the lung airway space; experiment: Exacerbation/tobacco smoke mouse model: neutrophil infiltration in lung airway space; type: in vivo, C57BL/6J mice
Experimental: as §1, §2, §3

G-CSF = experiment: Exacerbation/tobacco smoke mouse model: G-CSF in BALF by ELISA; type: in vivo, C57BL/6J mice; conditions: three tested doses 1, 3, 10 mg/kg s.c., day 5, FIG. 9
Experimental: as §1
as §2, with “Tobacco smoke exposure was performed during the morning and afternoon as follow: Day 1 for 15 min, Day 2 for 25 min, Day 3 for 30 min and Day 4 for 30 min.” left out
Following the above treatments, animals were terminally anaesthetised on Day 5. […] Cells recovered from the BALF were counted using the Sysmex cell counter.
G-CSF is well acknowledged as key cytokine stimulating the survival, proliferation, differentiation, and function of neutrophil precursors and mature neutrophils. […] The presence of G-CSF in the BALF was monitored with a commercially available ELISA kit.

[6] = Exacerbation/tobacco smoke mouse model: weight loss and tolerability; type: in vivo, C57BL/6J mice
Experimental: as §1, §2
As an example, weight loss was mitigated by IL-18BP even though both Students t-test and ANOVA statistical analyses were not significant (see FIG. 10). A large majority of mice receiving 3 and 10 mg/kg IL-18BP lost respectively 6-7% weight in contrast to the control exposed to tobacco smoke and p[I:C] that lost about 9%.

IL-18 [7] = molecular target: T1, IL-18; conditions: cited from earlier work

B1: IL-18BP: IL-18 Binding Protein, naturally occurring IL-18 antagonist, as shown in SEQ ID NO: 7 (protein)
chain: TPVSQTTTAATASVRSTKDPCPSQPPVFPAAKQCPALEVTWPEVEVPLNGTLSLSCVACSRFPNFSILYWLGNGSFIEHLPGRLWEGSTSRERGSTGTQLCKALVLEQLTPALHSTNFSCVLVDPEQVVQRHVVLAQLWAGLRATLPPTQEALPSSHSSPQQQG
modifications: IL-18 binding protein
Kd (IL-18 [1]; PBS supplemented by 5% BSA diluent): 0.035 nM | Kd (IL-18 [1]; serum diluent (healthy volunteer sera depleted in endogenous IL-18BP)): 0.05 nM | Ka (IL-18 [2]): 5.3 ± 1.2 10^+5/Ms | IL-18BP concentration at which 400 pg/mL IL-18 detection is near background (IL-18 [3]): ≥ 6000 pg/mL | Exacerbated inflammation inhibition (total cell infiltration) ([4]; 10 mg/kg s.c., day 5, FIG. 6): clear and statistically relevant efficacy | Mitigation of total cell infiltration in the lung ([4]; 3 and 10 mg/kg s.c., day 5, compared to dexamethasone, FIG. 5): statistically valuable efficacy | Inhibition of neutrophil infiltration ([5]; 10 mg/kg s.c., day 5, FIG. 8): best statistical efficacy | Inhibition of neutrophil infiltration ([5]; 3 and 10 mg/kg s.c., day 5, FIG. 7): statistically valuable efficacy | Mitigation of G-CSF release in the lung airways (G-CSF): statistically relevant effect | Weight loss ([6]; 3 and 10 mg/kg s.c., large majority of mice, day 5): 6-7% | Tolerability ([6]; exacerbation/tobacco smoke mouse model): well tolerated | Kd (IL-18 [7]; BIAcore, literature, read-out: KD reported in the literature (Kim et al 2000)): 0.4 nM | Kd (IL-18 [7]; used in Law of Mass Action calculation, read-out: Dissociation constant as calculated by Kim et al 2000): 0.4 nM
